In patent US6297019, “Recombinant polynucleotides encoding CYP7 promoter-binding factors” (Tularik Inc.):

Target: T1, CPF (clone 113) (Homo sapiens)
T1 chain: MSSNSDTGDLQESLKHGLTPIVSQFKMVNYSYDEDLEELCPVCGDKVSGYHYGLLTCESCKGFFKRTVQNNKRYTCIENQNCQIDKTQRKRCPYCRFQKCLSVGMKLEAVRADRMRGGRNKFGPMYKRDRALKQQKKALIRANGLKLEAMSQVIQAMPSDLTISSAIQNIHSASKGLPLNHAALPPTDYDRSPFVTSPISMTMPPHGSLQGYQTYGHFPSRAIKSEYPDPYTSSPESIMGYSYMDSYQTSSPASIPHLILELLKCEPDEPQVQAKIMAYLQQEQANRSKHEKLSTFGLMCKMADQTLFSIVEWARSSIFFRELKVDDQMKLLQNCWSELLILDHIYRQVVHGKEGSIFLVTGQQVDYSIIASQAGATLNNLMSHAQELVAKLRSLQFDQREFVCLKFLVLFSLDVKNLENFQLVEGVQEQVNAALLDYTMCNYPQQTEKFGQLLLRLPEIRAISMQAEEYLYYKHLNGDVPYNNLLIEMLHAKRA
Test: EMSA; same DNA sequence as endogenous protein; exact probe not stated; complex disrupted by anti-CPF antibody
Settings: tags: TNT in vitro transcription/translation; label: 32P
Text: Characterization of CPF. Clone #113 encodes a full length polypeptyde of 495 amino acids, with an in-frame stop codon 30 nucleotides upstream of the first ATG. We named the protein as CPF for CYP7 Promoter-binding Factor. […] The closest homologs of CPF are the mouse version of the family, LRH-1 (SEQ ID NOS:7, 8)and a human variant, hFTF (SEQ ID NOS:9, 10). To confirm the cloned CPF is the factor responsible for the CYP7 promoter binding activity, in vitro translated CPF was used side-by-side with the HepG2 nuclear extracts in gel shift experiments. We found in vitro translated CPF recognized the same DNA sequence as the endogenous protein does and the gel shift patterns between these two appear to be identical. Antibodies raised against a peptide containing the Ftz-F1 box were used in gel shift experiments. We found the DNA-protein complex formed either with HepG2 nuclear extracts or with in vitro translated CPF was disrupted by the specific antibody but not by preimmune serum. Furthermore, the antibody recognized a hepatic-specific cellular protein that comigrates with the in vitro translated CPF. The endogenous gene product recognized by the Ftz-F1-specific antibody is apparently hepatic specific since there is no corresponding protein in 293 cells.

B1: CYP7 promoter wild-type oligo (dsDNA)
DNA 1: TCTGATACCTGTGGACTTAGTTCAAGGCCAGTTA
DNA 2: TAACTGGCCTTGAACTAAGTCCACAGGTATCAGA
  binding result: binds
